Reference: PMC12455010

Experiments:
[1] = cell surface biotinylation, western blot; conditions: glycan lost
[2] = automated whole-cell patch clamp, inactivation width at +80 mV
[3] = whole-cell patch clamp in CHO; conditions: glycan lost; control: wild type
[4] = glycan changed form, control: untreated
[5] = glycan changed form, control: low glucose
[6] = glycan lost, control: wild type

B1: rat Kv3.4 (rKv3.4): tunicamycin (protein)
parent chain: MISSVCVSSYRGRKSGNKPPSKTCLKEEMAKGEASEKIIINVGGTRHETYRSTLRTLPGTRLAWLADPDGGGRPESDGGGAGSSGSSGGGGGCEFFFDRHPGVFAYVLNYYRTGKLHCPADVCGPLFEEELTFWGIDETDVEPCCWMTYRQHRDAEEALDIFESPDGGGGGAGPGDEAGDDERELALQRLGPHEGGSGPGAGSGGCRGWQPRMWALFEDPYSSRAARVVAFASLFFILVSITTFCLETHEAFNIDRNVTEIHRVGNITSVRFRREVETEPILTYIEGVCVMWFTLEFLVRIVCCPDTLDFVKNLLNIIDFVAILPFYLEVGLSGLSSKAARDVLGFLRVVRFVRILRIFKLTRHFVGLRVLGHTLRASTNEFLLLIIFLALGVLIFATMIYYAERIGARPSDPRGNDHTDFKNIPIGFWWAVVTMTTLGYGDMYPKTWSGMLVGALCALAGVLTIAMPVPVIVNNFGMYYSLAMAKQKLPKKRKKHVPRPPQLESPIYCKSEETSPRDSTYSDTSPPAREEGMVERKRADSKQNGDANAVLSDEEGAGLTQPLASAPTPEERRALRRSGTRDRNKKAAACFLLSAGDYACADGSVQKEGSVEPKACVPVSHTCAL
In the case of B1, the localisation_or_trafficking ([1]; control: untreated) is reported as “no change” and the “other: channel inactivation delay and its heterogeneity” value ([2]; glycan lost, control: untreated) is reported as “decreases”.

B2: rat Kv3.4 (rKv3.4): low-glucose medium (protein)
parent chain: B1 parent chain
With B2 the “other: channel inactivation delay and its heterogeneity” value [2, 4] was “decreases”.

B3: rat Kv3.4 (rKv3.4): kifunensine (Kf) (protein)
parent chain: B1 parent chain
For B3, the “other: channel inactivation delay and its heterogeneity” value [2, 4] was “decreases”.

B4: rat Kv3.4 (rKv3.4): siGlut1 (protein)
parent chain: B1 parent chain
In the case of B4, the “other: channel inactivation delay and its heterogeneity” value ([2]; glycan changed form, control: siNeg) is reported as “decreases”.

B5: rat Kv3.4 (rKv3.4): mannose recovery (protein)
parent chain: B1 parent chain
With B5 the “other: channel inactivation delay and its heterogeneity” value [2, 5] was “increases”.

B6: rat Kv3.4 (rKv3.4): N266Q (protein)
parent chain: B1 parent chain
In the case of B6, the localisation_or_trafficking ([1]; control: wild type) is reported as “no change”, the “other: channel current” value [3] is reported as “decreases” and the “other: channel inactivation delay and its heterogeneity” value [2, 6] is reported as “decreases”.

B7: rat Kv3.4 (rKv3.4): glucose recovery (protein)
parent chain: B1 parent chain
With B7 the “other: channel inactivation delay and its heterogeneity” value [2, 5] was “increases”.

B8: rat Kv3.4 (rKv3.4): swainsonine (Sw) (protein)
parent chain: B1 parent chain
In the case of B8, the “other: channel inactivation delay and its heterogeneity” value [2, 4] is reported as “decreases”.

B9: rat Kv3.4 (rKv3.4): N257/266Q (protein)
parent chain: B1 parent chain
For B9, the localisation_or_trafficking ([1]; control: wild type) was “no change”.

B10: rat Kv3.4 (rKv3.4): N257Q (protein)
parent chain: B1 parent chain
In the case of B10, the localisation_or_trafficking ([1]; control: wild type) is reported as “no change”, the “other: channel current” value [3] is reported as “decreases” and the “other: channel inactivation delay and its heterogeneity” value [2, 6] is reported as “decreases”.

B11: rat Kv3.4 (rKv3.4): cytochalasin B (protein)
parent chain: B1 parent chain
With B11 the “other: channel inactivation delay and its heterogeneity” value [2, 4] was “decreases”.
